40 molecules from US20110118131A1 (published 2011) can be followed below.

Positions count from the first letter of the chain named. In names and notes the source's numbering stands.

Sequences and labels used below:
B1: ING-1 heavy chain D104F (Fab, V domains shown)
VH: QIQLVQSGPELKKPGETVKISCKASGYTFTKYGMNWVKQAPGKGLKWMGWINTYTEEPTYGDDFKGRFAFSLETSASTANLQINNLKSEDTATYFCARFGSAVFYWGQGTSVTVSS
VL: DIVMTQAAFSNPVTLGTSGSISCRSSKSLLHSNGITYLYWYLQKPGQSPQLLIYQMSNLASGVPDRFSSSGSGTDFTLRISRVEAEDVGVYYCAQNLELPRTFGGGTKLEMKR
B2: ING-1 heavy chain G100E (Fab, V domains shown)
VH: B1 VH with G100E, F104D
VL: B1 VL
B3: ING-1 heavy chain D104R (Fab, V domains shown)
VH: B1 VH with F104R
VL: B1 VL
B4: ING-1 heavy chain G33R (Fab, V domains shown)
VH: B1 VH with G33R, F104D
VL: B1 VL
B5: ING-1 heavy chain N52W (Fab, V domains shown)
VH: B1 VH with N52W, F104D
VL: B1 VL
B6: ING-1 heavy chain K31Y (Fab, V domains shown)
VH: B1 VH with K31Y, F104D
VL: B1 VL
B7: ING-1 heavy chain G33N (Fab, V domains shown)
VH: B1 VH with G33N, F104D
VL: B1 VL
B8: ING-1 heavy chain N52R (Fab, V domains shown)
VH: B1 VH with N52R, F104D
VL: B1 VL
B9: ING-1 heavy chain G100D (Fab, V domains shown)
VH: B1 VH with G100D, F104D
VL: B1 VL
B10: ING-1 heavy chain G33K (Fab, V domains shown)
VH: B1 VH with G33K, F104D
VL: B1 VL
B11: ING-1 heavy chain G33W (Fab, V domains shown)
VH: B1 VH with G33W, F104D
VL: B1 VL
B12: ING-1 heavy chain D104W (Fab, V domains shown)
VH: B1 VH with F104W
VL: B1 VL
B13: ING-1 heavy chain N52D (Fab, V domains shown)
VH: B1 VH with N52D, F104D
VL: B1 VL
B14: ING-1 heavy chain G33E (Fab, V domains shown)
VH: B1 VH with G33E, F104D
VL: B1 VL
B15: ING-1 heavy chain G33Q (Fab, V domains shown)
VH: B1 VH with G33Q, F104D
VL: B1 VL
B16: ING-1 heavy chain D104Y (Fab, V domains shown)
VH: B1 VH with F104Y
VL: B1 VL
B17: ING-1 heavy chain K31N (Fab, V domains shown)
VH: B1 VH with K31N, F104D
VL: B1 VL
B18: ING-1 heavy chain N52E (Fab, V domains shown)
VH: B1 VH with N52E, F104D
VL: B1 VL
B19: ING-1 heavy chain G100Y (Fab, V domains shown)
VH: B1 VH with G100Y, F104D
VL: B1 VL
B20: ING-1 heavy chain N52H (Fab, V domains shown)
VH: B1 VH with N52H, F104D
VL: B1 VL
B21: ING-1 heavy chain N52Q (Fab, V domains shown)
VH: B1 VH with N52Q, F104D
VL: B1 VL
B22: ING-1 heavy chain N52S (Fab, V domains shown)
VH: B1 VH with N52S, F104D
VL: B1 VL
B23: ING-1 heavy chain D104Q (Fab, V domains shown)
VH: B1 VH with F104Q
VL: B1 VL
B24: ING-1 heavy chain P58N (Fab, V domains shown)
VH: B1 VH with P58N, F104D
VL: B1 VL
B25: ING-1 heavy chain G33H (Fab, V domains shown)
VH: B1 VH with G33H, F104D
VL: B1 VL
B26: ING-1 heavy chain D104K (Fab, V domains shown)
VH: B1 VH with F104K
VL: B1 VL
B27: ING-1 heavy chain N52K (Fab, V domains shown)
VH: B1 VH with N52K, F104D
VL: B1 VL
B28: ING-1 heavy chain E57Q (Fab, V domains shown)
VH: B1 VH with E57Q, F104D
VL: B1 VL
B29: ING-1 heavy chain T28Q (Fab, V domains shown)
VH: B1 VH with T28Q, F104D
VL: B1 VL
B30: ING-1 heavy chain G100W (Fab, V domains shown)
VH: B1 VH with G100W, F104D
VL: B1 VL
B31: ING-1 heavy chain G33D (Fab, V domains shown)
VH: B1 VH with G33D, F104D
VL: B1 VL
B32: ING-1 heavy chain N52Y (Fab, V domains shown)
VH: B1 VH with N52Y, F104D
VL: B1 VL
B33: ING-1 heavy chain D104H (Fab, V domains shown)
VH: B1 VH with F104H
VL: B1 VL
B34: ING-1 heavy chain G100F (Fab, V domains shown)
VH: B1 VH with G100F, F104D
VL: B1 VL
B35: ING-1 heavy chain G100Q (Fab, V domains shown)
VH: B1 VH with G100Q, F104D
VL: B1 VL
B36: ING-1 heavy chain N52F (Fab, V domains shown)
VH: B1 VH with N52F, F104D
VL: B1 VL
B37: ING-1 heavy chain G100H (Fab, V domains shown)
VH: B1 VH with G100H, F104D
VL: B1 VL
B38: XPA23 heavy chain Y107P (Fab, V domains shown)
VH: EVQLLESGGGLVQPGGSLRLSCAASGFTFSKYFMFWVRQAPGKGLEWVSVISPSGGMTRYADSVKGRFTISRDNSKNTLYLQMNSLRAEDTAVYYCARVGYGGNSDPWGQGTLVTVSS
VL: DIQMTQSPSSVSASVGDRLTIICRASQDINRWLAWYQQTPGNAPKLLIHSATSLQSGVPSRFSGSGSGTDFTLTINSLQPEDFATYYCQQADSFPLTFGGGTKVEIK
notes: Fab, periplasmic extract; also called C5A Y107P
B39: XPA23 heavy chain Y107T (Fab, V domains shown)
VH: B38 VH with P107T
VL: B38 VL
notes: Fab, periplasmic extract; also called C5A Y107T
B40: XPA23 heavy chain Y107V (Fab, V domains shown)
VH: B38 VH with P107V
VL: B38 VL
notes: Fab, periplasmic extract; also called C5A Y107V

The target of one assay is T1, Ep-CAM (UniProt P16422 24-265, limits assumed).
T1 construct: Antigen of the Biacore analysis of ING-1 variants
T1 sequence (looked up): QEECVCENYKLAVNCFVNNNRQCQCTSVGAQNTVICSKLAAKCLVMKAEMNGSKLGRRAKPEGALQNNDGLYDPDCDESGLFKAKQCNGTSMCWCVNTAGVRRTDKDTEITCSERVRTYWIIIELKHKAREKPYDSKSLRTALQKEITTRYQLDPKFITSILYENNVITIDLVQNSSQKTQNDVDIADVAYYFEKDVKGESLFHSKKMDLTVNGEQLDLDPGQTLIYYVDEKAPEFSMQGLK
In words: Biacore, Fab periplasmic extract. Background: In SPR one partner is held on a chip, and binding of the other changes the refractive index at the surface.
As to B1, the binding result was “no binding”.

B2: the binding result is reported as “no binding”.

With B3, the binding result is given as “no binding”.

As to B4, the “fold difference in affinity vs original” value came out at 0.03 fold.

Turning to B5, the binding result was “no binding”.

Consider B6, for which the “fold difference in affinity vs original” value was 1 fold.

On to B7, for which the binding result was “no binding”.

As for B8, the binding result is given as “no binding”.

As to B9, the binding result is “no binding”.

With B10, the binding result is listed as “no binding”.

As for B11, the binding result is “no binding”.

As for B12, the binding result was “no binding”.

As for B13, the “fold difference in affinity vs original” value turned out to be 0.02 fold.

Turning to B14, the binding result was “no binding”.

For the molecule B15, the “fold difference in affinity vs original” value came out at 0.06 fold.

In the case of B16, the binding result is “no binding”.

B17: the binding result is “no binding”.

Consider B18, for which the binding result is reported as “no binding”.

Consider B19, for which the binding result is listed as “no binding”.

Consider B20, for which the “fold difference in affinity vs original” value was 0.02 fold.

Turning to B21, the binding result was “no binding”.

As to B22, the binding result is “no binding”.

On to B23, for which the binding result is reported as “no binding”.

On to B24, for which the “fold difference in affinity vs original” value came out at 0.9 fold.

With B25, the “fold difference in affinity vs original” value worked out at 0.02 fold.

On to B26, for which the binding result is “no binding”.

For B27, the binding result is given as “no binding”.

Take B28: the binding result was “no binding”.

In the case of B29, the binding result is “no binding”.

As for B30, the binding result is “no binding”.

With B31, the binding result is reported as “no binding”.

Turning to B32, the binding result is reported as “no binding”.

Take B33: the binding result is “no binding”.

For the molecule B34, the binding result was “no binding”.

As for B35, the binding result is listed as “no binding”.

On to B36, for which the binding result is given as “no binding”.

With B37, the binding result is “no binding”.

The next assay deals with T2, IL-1β (UniProt P01584 117-269).
T2 construct: Antigen of XPA23
In words: Biacore, Fab periplasmic extract.
In the case of B38, the “fold difference in affinity against the original” value stood at 0.04 fold.

For the molecule B39, the “fold difference in affinity against the original” value was 0.83 fold.

With B40, the “fold difference in affinity against the original” value came to 0.93 fold.
